Measurements reported in patent US20250262210A1 (TRUSTEES OF COLUMBIA UNIVERSITY IN THE CITY OF NEW YORK, published 2025).

Assays:
Experiment in all cases: IP/MS, LZTR1 wild type-FLAG, U87
[1] = molecular target: HTT (human, UniProt P42858 1-3142)
How it was run: (§1)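 Read-out: spectral counts from LC-MS/MS (Orbitrap Fusion) after MaxQuant identification. Variable modifications were Met oxidation, protein N-terminal acetylation and N/Q deamidation.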

[2] = molecular target: ALPK2 (human, UniProt Q86TB3 1-2170)
How it was run: as §1

[3] = molecular target: T1, RANBP6 (human, UniProt O60518 2-1105)
T1 sequence (looked up): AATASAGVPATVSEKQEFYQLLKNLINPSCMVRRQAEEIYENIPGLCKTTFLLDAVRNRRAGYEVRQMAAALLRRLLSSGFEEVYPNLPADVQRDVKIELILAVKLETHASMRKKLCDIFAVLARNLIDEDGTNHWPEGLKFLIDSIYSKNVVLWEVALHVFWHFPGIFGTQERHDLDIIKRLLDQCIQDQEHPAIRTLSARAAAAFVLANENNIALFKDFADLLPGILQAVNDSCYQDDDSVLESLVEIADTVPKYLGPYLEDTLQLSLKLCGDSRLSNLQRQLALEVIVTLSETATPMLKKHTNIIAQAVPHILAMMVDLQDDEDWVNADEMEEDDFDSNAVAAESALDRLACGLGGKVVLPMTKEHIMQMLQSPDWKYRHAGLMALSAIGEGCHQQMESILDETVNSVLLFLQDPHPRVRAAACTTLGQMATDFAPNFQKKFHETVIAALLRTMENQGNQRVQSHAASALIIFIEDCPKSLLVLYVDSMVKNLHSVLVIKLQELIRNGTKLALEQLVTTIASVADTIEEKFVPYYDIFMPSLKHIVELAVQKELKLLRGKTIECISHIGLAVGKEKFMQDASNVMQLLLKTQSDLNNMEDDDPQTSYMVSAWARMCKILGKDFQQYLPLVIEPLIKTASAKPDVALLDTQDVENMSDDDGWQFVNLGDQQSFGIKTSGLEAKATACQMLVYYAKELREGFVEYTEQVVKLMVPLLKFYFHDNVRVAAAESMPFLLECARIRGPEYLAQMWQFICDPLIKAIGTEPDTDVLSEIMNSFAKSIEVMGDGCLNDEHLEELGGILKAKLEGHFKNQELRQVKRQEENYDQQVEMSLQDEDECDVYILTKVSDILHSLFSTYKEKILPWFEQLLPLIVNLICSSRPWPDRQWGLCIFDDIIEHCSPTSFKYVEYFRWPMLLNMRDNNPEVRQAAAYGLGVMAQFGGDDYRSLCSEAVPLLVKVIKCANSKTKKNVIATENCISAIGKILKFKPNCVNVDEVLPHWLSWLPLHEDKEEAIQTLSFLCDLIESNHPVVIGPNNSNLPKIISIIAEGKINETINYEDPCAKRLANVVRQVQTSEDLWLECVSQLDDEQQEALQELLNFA
How it was run: as §1

Measured: binding result

HTT, sequence (P42858 whole entry, the tested form may be a part): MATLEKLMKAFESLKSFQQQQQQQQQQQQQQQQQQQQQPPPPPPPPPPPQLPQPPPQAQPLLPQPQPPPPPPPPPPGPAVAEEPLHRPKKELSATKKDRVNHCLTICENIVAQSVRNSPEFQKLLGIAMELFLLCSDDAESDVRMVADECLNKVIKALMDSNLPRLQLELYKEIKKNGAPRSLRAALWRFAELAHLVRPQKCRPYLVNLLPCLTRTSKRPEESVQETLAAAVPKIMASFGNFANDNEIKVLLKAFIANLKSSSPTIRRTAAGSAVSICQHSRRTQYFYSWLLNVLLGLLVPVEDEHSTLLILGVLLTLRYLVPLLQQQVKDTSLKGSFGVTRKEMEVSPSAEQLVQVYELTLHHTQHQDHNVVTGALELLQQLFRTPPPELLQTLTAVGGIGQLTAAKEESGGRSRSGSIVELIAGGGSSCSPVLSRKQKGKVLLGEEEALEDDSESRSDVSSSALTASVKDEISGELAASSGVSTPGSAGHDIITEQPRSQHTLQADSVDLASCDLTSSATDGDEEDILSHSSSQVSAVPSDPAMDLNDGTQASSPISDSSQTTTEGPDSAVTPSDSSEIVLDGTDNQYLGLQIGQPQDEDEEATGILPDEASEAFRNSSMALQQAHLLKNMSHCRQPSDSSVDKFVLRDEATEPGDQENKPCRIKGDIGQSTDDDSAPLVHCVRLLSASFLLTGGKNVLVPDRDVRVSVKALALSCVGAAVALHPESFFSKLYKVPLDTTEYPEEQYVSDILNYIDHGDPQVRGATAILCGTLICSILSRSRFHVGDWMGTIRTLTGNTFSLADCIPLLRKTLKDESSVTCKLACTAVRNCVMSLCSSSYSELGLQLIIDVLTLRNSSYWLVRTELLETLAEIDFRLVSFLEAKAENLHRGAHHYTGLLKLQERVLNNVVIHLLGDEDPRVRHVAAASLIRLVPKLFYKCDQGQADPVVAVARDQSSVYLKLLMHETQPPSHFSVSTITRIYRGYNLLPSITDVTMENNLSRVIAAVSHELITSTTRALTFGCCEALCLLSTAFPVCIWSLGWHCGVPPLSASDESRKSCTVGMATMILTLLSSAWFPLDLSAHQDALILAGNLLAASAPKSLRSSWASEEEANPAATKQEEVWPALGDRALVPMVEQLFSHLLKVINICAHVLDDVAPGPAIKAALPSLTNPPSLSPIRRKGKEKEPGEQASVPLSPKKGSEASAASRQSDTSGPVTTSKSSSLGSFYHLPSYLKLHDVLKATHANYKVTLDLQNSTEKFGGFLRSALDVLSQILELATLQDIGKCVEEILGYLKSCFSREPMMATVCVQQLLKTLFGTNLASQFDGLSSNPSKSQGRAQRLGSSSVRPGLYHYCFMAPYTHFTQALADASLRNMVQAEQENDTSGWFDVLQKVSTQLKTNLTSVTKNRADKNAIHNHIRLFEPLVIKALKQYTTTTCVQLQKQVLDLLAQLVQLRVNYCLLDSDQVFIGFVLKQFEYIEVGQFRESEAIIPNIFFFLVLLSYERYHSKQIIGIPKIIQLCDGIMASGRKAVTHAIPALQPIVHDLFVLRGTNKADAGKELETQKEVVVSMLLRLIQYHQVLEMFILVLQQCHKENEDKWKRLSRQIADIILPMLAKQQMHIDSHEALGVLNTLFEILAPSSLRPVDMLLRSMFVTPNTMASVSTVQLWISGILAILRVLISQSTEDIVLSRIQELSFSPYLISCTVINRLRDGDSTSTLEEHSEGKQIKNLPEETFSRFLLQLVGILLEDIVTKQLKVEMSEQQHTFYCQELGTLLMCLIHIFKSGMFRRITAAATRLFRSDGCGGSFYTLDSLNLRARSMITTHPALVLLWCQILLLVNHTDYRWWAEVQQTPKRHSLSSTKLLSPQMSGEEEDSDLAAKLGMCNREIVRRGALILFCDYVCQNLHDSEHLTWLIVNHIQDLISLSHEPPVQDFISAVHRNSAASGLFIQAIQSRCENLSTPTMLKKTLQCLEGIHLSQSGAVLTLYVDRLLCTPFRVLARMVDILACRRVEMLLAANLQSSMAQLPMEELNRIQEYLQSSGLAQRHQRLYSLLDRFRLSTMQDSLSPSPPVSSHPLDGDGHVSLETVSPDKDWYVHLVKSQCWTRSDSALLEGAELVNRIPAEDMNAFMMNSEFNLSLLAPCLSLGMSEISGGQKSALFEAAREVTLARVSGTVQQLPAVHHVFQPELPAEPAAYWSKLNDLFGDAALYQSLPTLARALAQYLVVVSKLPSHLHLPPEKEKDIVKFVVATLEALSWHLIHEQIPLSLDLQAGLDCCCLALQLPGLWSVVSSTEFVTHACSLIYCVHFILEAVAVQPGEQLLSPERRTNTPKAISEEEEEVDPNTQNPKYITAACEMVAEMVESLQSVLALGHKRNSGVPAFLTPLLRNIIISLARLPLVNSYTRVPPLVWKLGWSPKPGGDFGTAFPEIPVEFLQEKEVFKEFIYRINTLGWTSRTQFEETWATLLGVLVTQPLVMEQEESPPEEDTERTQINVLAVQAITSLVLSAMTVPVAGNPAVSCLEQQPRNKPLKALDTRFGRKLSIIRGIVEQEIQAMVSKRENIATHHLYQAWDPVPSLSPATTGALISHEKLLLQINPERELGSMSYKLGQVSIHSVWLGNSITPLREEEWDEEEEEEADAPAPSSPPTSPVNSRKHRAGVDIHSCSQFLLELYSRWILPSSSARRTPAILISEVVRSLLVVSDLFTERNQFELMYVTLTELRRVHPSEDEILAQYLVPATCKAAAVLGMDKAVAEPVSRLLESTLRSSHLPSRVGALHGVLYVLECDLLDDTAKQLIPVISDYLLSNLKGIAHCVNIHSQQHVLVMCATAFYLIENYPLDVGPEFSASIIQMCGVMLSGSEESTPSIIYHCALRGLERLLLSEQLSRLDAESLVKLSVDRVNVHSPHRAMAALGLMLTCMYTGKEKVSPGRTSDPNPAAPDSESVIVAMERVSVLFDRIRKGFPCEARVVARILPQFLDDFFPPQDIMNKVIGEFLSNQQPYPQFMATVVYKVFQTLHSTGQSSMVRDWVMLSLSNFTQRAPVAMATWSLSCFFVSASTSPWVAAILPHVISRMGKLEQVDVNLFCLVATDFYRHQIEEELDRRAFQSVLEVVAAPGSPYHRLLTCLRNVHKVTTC

B1: LZTR1-FLAG (other, human, UniProt Q8N653 1-840, looked up)
chain: MAGPGSTGGQIGAAALAGGARSKVAPSVDFDHSCSDSVEYLTLNFGPFETVHRWRRLPPCDEFVGARRSKHTVVAYKDAIYVFGGDNGKTMLNDLLRFDVKDCSWCRAFTTGTPPAPRYHHSAVVYGSSMFVFGGYTGDIYSNSNLKNKNDLFEYKFATGQWTEWKIEGRLPVARSAHGATVYSDKLWIFAGYDGNARLNDMWTIGLQDRELTCWEEVAQSGEIPPSCCNFPVAVCRDKMFVFSGQSGAKITNNLFQFEFKDKTWTRIPTEHLLRGSPPPPQRRYGHTMVAFDRHLYVFGGAADNTLPNELHCYDVDFQTWEVVQPSSDSEVGGAEVPERACASEEVPTLTYEERVGFKKSRDVFGLDFGTTSAKQPTQPASELPSGRLFHAAAVISDAMYIFGGTVDNNIRSGEMYRFQFSCYPKCTLHEDYGRLWESRQFCDVEFVLGEKEECVQGHVAIVTARSRWLRRKITQARERLAQKLEQEAAPVPREAPGVAAGGARPPLLHVAIREAEARPFEVLMQFLYTDKIKYPRKGHVEDVLLIMDVYKLALSFQLCRLEQLCRQYIEASVDLQNVLVVCESAARLQLSQLKEHCLNFVVKESHFNQVIMMKEFERLSSPLIVEIVRRKQQPPPRTPLDQPVDIGTSLIQDMKAYLEGAGAEFCDITLLLDGHPRPAHKAILAARSSYFEAMFRSFMPEDGQVNISIGEMVPSRQAFESMLRYIYYGEVNMPPEDSLYLFAAPYYYGFYNNRLQAYCKQNLEMNVTVQNVLQILEAADKTQALDMKRHCLHIIVHQFTKVSKLPTLRSLSQQLLLDIIDSLASHISDKQCAELGADI
notes: Expressed in HEK 293T, HeLa or U87 cells; used as cell lysate; also called LZTR1 wild type-FLAG; LZTR1 WT; not shown: FLAG tag at the C-terminus
binds: [1] | [2] | [3]
